Experiment [1] addresses T1, FcγRIa (human, UniProt P12314 16-292).
T1 construct: extracellular domain; also called FcgRI; 1a; not shown: His tag at the C terminus
Kind of experiment: SPR (Biacore), antibody captured, FcγR as analyte; binding as % of GpH7-A5/GpH7-B3/GpL16-k0. (SPR reads the build-up and loss of mass on a sensor chip optically.)

For experiment [2], the target named is T2, FcγRIIb (human, UniProt P31994 43-217).
T2 construct: extracellular domain; also called FcgRIIb; 2b; not shown: His tag at the C terminus
T2 sequence (looked up): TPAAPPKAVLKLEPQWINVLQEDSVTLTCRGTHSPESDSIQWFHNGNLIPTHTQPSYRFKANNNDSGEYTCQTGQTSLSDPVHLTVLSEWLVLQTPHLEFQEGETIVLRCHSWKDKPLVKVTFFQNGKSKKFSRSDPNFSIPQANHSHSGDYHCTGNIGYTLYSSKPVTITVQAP
The description is as above.

The target of experiment [3] is T3, FcγRIIIa extracellular domain with C-terminal His tag (human, UniProt P08637 17-208).
T3 construct: extracellular domain; also called 3a; FcgRIIIa
Nature of the experiment: SPR (Biacore), antibody captured on antigen-peptide chip, FcγR analyte, relative binding.

Experiment [4] deals with T4, FcγRIIa H (human, UniProt P12318 34-217).
T4 construct: extracellular domain; Soluble His-tagged extracellular domain expressed in FreeStyle293 cells; also called FcγRIIa type H; FcgRIIa H; not shown: His tag attached to the C terminus
T4 sequence (looked up): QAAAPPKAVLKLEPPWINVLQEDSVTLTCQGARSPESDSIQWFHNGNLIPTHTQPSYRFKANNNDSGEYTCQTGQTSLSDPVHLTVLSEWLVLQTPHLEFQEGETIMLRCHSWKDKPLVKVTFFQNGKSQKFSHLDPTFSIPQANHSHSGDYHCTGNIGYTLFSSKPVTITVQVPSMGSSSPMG
Kind of experiment: SPR (Biacore); He/Con_2aH divided by He/Con_2b (FcγRIIb) of the same antibody. The procedure: The heterodimerized antibodies He Abs in which one of the H chains was introduced with an alteration were assayed for their binding activities to each activating FcγR and inhibitory FcγR according to the method described in Example 4. […] The activating FcγRs in FIGS. 26, 27, 28, and 29 are FcγRIa, FcγRIIa (R), FcγRIIa (H), and FcγRIIIa, respectively.
(§1) Analysis of interaction between objective antibody and the FcγR was carried out using Biacore T100 (GE Healthcare). HBS-EP+ (GE Healthcare) was used as the running buffer, and the measurement temperature was set to 25° C. Chips produced by immobilizing the antigen peptide by the amine coupling method to a Series S Sencor Chip CM5 (GE Healthcare), or alternatively, chips produced by allowing preliminarily biotinylated antigen peptides to interact with and immobilize onto a Series S Sensor Chip SA (certified) (GE Healthcare) were used. Antibodies of interest were captured onto an antigen peptide-immobilized chip, and allowed to interact to each FcγR diluted with running buffer. To regenerate and repeatedly use the chip, the antibodies captured on the chip were washed off by reacting 10 mM glycine-HCl, pH 1.5.

For experiment [5], the target named is T4, FcγRIIa H. Nature of the experiment: SPR (Biacore), captured antibody, FcγR analyte; relative to GpH7-A5/GpH7-B3/GpL16-k0 = 100. The procedure: as §1
(§2) The FcγR-binding activity of each antibody was assessed primarily using as an indicator the FcγR-binding activity and dissociation constant for FcγR.

Experiment [6] concerns the target T5, FcγRIIb (human, UniProt P31994 43-217).
T5 construct: extracellular domain; Soluble His-tagged extracellular domain expressed in FreeStyle293 cells; also called FcgRIIb; 2b; not shown: His tag attached to the C terminus
T5 sequence (looked up): T2 sequence (looked up)
Described as above. The procedure:
as §1, §2

T3 sequence (P08637 17-208): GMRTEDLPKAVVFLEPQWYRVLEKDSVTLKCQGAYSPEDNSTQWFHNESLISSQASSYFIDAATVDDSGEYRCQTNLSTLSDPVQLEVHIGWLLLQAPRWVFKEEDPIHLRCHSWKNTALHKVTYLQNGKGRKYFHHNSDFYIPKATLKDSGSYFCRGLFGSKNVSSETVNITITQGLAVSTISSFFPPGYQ
T1 sequence (P12314 16-292): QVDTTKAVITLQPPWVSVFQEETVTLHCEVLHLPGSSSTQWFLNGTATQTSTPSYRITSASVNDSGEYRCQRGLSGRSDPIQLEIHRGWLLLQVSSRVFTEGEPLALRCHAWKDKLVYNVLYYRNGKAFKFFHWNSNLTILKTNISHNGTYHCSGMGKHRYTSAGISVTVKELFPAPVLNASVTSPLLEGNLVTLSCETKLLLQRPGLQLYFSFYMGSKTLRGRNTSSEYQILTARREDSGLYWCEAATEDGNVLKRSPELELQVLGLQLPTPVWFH

B1: GpH7-A5/GpH7-B3 variant P331_15Y/GpL16-k0 (antibody, human IgG1, kappa)
heavy 1: not shown
heavy 2: not shown
light: DIVMTQSPLSLPVTPGEPASISCQASESLVHSNRNTYLHWYLQKPGQSPQLLIYKVSNRFSGVPDRFSGSGSGTDFTLKISRVEAEDVGVYYCSQNTHVPPTFGQGTKVEIERTVAAPSVFIFPPSDEQLKSGTASVVCLLNNFYPREAKVQWKVDNALQSGNSQESVTEQDSKDSTYSLSSTLTLSKADYEKHKVYACEVTHQGLSSPVTKSFNRGEC
notes: heterodimerized IgG1; alteration in the GpH7-B3 H chain only; also called He Ab
On to B1, for which the He/Con_1a in experiment [1] was 96 % of control. In experiment [2], the He/Con_2b is 114 % of control.

B2: GpH7-B3 variant S324_01G/GpL16-k0 (homodimerized antibody, Ho Ab) (antibody, human IgG1, kappa)
heavy: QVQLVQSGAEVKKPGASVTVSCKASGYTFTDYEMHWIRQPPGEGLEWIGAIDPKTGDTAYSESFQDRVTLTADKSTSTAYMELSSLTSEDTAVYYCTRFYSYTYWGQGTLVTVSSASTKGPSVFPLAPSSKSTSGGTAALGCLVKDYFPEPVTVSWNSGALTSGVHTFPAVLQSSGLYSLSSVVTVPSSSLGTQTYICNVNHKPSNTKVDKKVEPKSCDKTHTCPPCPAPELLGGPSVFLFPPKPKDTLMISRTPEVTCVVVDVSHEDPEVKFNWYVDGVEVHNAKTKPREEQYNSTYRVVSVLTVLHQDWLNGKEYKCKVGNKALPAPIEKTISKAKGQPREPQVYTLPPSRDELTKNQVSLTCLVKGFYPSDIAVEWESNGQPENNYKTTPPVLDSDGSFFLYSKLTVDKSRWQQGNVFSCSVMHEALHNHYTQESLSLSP
light: B1 light
notes: Mutation in both H chains; also called S324_01G Ho Ab
As to B2, the Ho/Con_3a in experiment [3] was 119 % of GpH7-B3/GpL16-k0 (=100).

B3: GpH7-A5/GpH7-B3 variant S324_01G/GpL16-k0 (heterodimerized antibody, He Ab) (antibody, human IgG1, kappa)
heavy 1: not shown
heavy 2: not shown
light: B1 light
notes: Mutation in one H chain only; also called S324_01G He Ab
Regarding B3, in experiment [3], the He/Con_3a was 105 % of GpH7-A5/GpH7-B3/GpL16-k0 (=100).

B4: GpH7-A5/GpH7-B3 variant A327_09D/GpL16-k0 (antibody, human IgG1, kappa)
heavy 1: not shown
heavy 2: not shown
light: B1 light
notes: Heterodimerized anti-glypican-3 IgG1; mutation in the GpH7-B3 H chain only; also called He Ab
Consider B4, for which the He_2aH/2b in experiment [4] is 0.61 ratio. In addition, in experiment [5], the He/Con_2aH is 105 relative (control = 100). Further, the He/Con_2b in experiment [6] is 172 relative (control = 100).

B5: GpH7-B3 variant S324_06M/GpL16-k0 (homodimerized antibody, Ho Ab) (antibody, human IgG1, kappa)
heavy: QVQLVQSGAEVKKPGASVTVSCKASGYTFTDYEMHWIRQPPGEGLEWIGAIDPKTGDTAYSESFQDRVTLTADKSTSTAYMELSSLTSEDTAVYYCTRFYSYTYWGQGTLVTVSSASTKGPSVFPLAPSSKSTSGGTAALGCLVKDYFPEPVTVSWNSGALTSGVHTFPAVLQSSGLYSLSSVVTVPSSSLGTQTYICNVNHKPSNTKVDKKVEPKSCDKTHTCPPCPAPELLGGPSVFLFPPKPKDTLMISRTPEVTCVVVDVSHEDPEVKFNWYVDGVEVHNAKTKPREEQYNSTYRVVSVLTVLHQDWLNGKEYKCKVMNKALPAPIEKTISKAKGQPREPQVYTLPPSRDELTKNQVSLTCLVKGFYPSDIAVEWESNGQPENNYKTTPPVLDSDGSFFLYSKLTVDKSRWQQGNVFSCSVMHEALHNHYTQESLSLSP
light: B1 light
notes: Mutation in both H chains; also called S324_06M Ho Ab
As to B5, the Ho/Con_3a in experiment [3] is 114 % of GpH7-B3/GpL16-k0 (=100).

B6: GpH7-B3 variant T335_05P/GpL16-k0 (homodimerized antibody, Ho Ab) (antibody, human IgG1, kappa)
heavy: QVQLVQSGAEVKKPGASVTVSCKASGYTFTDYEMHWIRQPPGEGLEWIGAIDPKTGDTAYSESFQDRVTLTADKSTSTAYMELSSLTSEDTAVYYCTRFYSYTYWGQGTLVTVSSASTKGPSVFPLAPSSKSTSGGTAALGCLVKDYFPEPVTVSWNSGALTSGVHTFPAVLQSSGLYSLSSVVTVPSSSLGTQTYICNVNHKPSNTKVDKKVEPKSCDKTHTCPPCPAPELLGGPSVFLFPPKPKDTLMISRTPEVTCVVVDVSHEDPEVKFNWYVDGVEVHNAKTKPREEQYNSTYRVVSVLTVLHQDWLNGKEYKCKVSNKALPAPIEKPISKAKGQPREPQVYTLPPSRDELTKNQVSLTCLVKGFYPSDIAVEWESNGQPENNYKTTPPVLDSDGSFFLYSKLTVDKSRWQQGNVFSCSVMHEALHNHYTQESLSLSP
light: B1 light
notes: Mutation in both H chains; also called T335_05P Ho Ab
With B6, in experiment [3], the Ho/Con_3a is 119 % of GpH7-B3/GpL16-k0 (=100).

B7: GpH7-A5/GpH7-B3 variant T335_05P/GpL16-k0 (heterodimerized antibody, He Ab) (antibody, human IgG1, kappa)
heavy 1: not shown
heavy 2: not shown
light: B1 light
notes: Mutation in one H chain only; also called T335_05P He Ab
B7: the He/Con_3a in experiment [3] is 105 % of GpH7-A5/GpH7-B3/GpL16-k0 (=100).

B8: GpH7-A5/GpH7-B3 variant S239_10E/GpL16-k0 (heterodimerized antibody, He Ab) (antibody, human IgG1, kappa)
heavy 1: not shown
heavy 2: not shown
light: B1 light
notes: Mutation in one H chain only; also called S239_10E He Ab
For the molecule B8, the He/Con_3a in experiment [3] is 181 % of GpH7-A5/GpH7-B3/GpL16-k0 (=100).

B9: GpH7-A5/GpH7-B3 variant A327_08L/GpL16-k0 (antibody, human IgG1, kappa)
heavy 1: not shown
heavy 2: not shown
light: B1 light
notes: as for B4
B9 registered a He_2aH/2b in experiment [4] of 0.74 ratio. Besides, in experiment [5], the He/Con_2aH is 46.9 relative (control = 100). The He/Con_2b in experiment [6] is 63.1 relative (control = 100).

B10: GpH7-B3 variant S324_14T/GpL16-k0 (homodimerized antibody, Ho Ab) (antibody, human IgG1, kappa)
heavy: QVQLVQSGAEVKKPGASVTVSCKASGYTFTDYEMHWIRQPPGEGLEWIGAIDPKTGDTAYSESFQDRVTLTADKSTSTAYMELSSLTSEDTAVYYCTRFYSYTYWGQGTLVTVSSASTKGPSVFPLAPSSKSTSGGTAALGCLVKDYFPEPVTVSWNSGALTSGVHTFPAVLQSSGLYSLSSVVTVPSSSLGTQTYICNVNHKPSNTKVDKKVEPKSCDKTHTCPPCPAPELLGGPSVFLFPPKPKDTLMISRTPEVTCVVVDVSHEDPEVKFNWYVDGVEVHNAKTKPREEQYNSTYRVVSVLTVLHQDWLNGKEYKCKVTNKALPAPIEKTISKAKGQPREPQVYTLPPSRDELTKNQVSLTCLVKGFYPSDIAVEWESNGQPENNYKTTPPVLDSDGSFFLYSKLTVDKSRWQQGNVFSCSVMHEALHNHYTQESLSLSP
light: B1 light
notes: Mutation in both H chains; also called S324_14T Ho Ab
B10: in experiment [3], the Ho/Con_3a is 108 % of GpH7-B3/GpL16-k0 (=100).

B11: GpH7-A5/GpH7-B3 variant S337_16H/GpL16-k0 (heterodimerized antibody, He Ab) (antibody, human IgG1, kappa)
heavy 1: not shown
heavy 2: not shown
light: B1 light
notes: Mutation in one H chain only; also called S337_16H He Ab
For B11, in experiment [3], the He/Con_3a was 108 % of GpH7-A5/GpH7-B3/GpL16-k0 (=100).

B12: GpH7-A5/GpH7-B3 variant A327_07I/GpL16-k0 (antibody, human IgG1, kappa)
heavy 1: not shown
heavy 2: not shown
light: B1 light
notes: as for B4
Consider B12, for which the He_2aH/2b in experiment [4] turned out to be 0.46 ratio. For the same molecule, the He/Con_2aH in experiment [5] was 58.4 relative (control = 100). In addition, the He/Con_2b in experiment [6] is 127 relative (control = 100).

B13: GpH7-A5/GpH7-B3 variant S298_03V/GpL16-k0 (heterodimerized antibody, He Ab) (antibody, human IgG1, kappa)
heavy 1: not shown
heavy 2: not shown
light: B1 light
notes: Mutation in one H chain only; also called S298_03V He Ab
Take B13: in experiment [3], the He/Con_3a was 109 % of GpH7-A5/GpH7-B3/GpL16-k0 (=100).

B14: GpH7-A5/GpH7-B3 variant Y300_08L/GpL16-k0 (heterodimerized antibody, He Ab) (antibody, human IgG1, kappa)
heavy 1: not shown
heavy 2: not shown
light: B1 light
notes: Mutation in one H chain only; also called Y300_08L He Ab
For B14, in experiment [3], the He/Con_3a is 105 % of GpH7-A5/GpH7-B3/GpL16-k0 (=100).

B15: GpH7-B3 variant S324_09D/GpL16-k0 (homodimerized antibody, Ho Ab) (antibody, human IgG1, kappa)
heavy: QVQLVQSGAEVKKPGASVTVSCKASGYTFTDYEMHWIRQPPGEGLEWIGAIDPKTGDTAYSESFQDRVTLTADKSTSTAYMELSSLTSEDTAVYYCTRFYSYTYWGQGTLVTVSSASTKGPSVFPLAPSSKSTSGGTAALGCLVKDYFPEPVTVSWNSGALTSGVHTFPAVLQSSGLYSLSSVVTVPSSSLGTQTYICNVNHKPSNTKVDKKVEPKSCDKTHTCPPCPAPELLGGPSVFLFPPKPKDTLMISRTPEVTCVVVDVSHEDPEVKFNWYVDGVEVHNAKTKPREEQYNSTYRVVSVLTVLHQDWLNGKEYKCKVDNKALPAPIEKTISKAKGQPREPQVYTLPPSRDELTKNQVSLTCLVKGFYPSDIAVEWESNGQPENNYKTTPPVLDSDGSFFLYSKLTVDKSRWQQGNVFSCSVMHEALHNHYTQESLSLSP
light: B1 light
notes: Mutation in both H chains; also called S324_09D Ho Ab
Take B15: in experiment [3], the Ho/Con_3a was 101 % of GpH7-B3/GpL16-k0 (=100).

B16: GpH7-B3 variant S298_03V/GpL16-k0 (homodimerized antibody, Ho Ab) (antibody, human IgG1, kappa)
heavy: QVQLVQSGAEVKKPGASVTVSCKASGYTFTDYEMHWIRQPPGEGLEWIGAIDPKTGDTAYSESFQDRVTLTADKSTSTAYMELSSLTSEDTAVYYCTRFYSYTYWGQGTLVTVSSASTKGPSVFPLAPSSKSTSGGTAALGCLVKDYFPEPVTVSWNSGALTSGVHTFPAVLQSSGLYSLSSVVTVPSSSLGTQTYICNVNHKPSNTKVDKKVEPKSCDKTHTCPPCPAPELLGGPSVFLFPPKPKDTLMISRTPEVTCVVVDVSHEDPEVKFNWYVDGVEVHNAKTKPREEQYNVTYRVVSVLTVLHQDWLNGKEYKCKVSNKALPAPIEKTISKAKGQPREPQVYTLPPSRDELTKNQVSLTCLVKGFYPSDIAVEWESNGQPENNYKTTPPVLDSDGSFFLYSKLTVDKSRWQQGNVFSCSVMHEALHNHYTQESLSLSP
light: B1 light
notes: Mutation in both H chains; also called S298_03V Ho Ab
Turning to B16, the Ho/Con_3a in experiment [3] was 110 % of GpH7-B3/GpL16-k0 (=100).

B17: GpH7-B3 variant T335_09D/GpL16-k0 (homodimerized antibody, Ho Ab) (antibody, human IgG1, kappa)
heavy: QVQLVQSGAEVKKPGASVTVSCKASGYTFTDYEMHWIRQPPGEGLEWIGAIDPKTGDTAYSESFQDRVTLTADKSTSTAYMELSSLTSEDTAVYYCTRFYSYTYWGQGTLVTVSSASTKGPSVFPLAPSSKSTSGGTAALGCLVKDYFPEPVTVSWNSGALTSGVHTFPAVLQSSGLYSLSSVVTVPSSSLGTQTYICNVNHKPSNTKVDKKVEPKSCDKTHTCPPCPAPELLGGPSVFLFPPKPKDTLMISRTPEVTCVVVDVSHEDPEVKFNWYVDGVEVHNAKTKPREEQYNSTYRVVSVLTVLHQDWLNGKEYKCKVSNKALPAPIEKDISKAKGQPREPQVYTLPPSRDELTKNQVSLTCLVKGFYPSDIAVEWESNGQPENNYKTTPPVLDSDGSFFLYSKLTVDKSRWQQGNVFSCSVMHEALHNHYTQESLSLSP
light: B1 light
notes: Mutation in both H chains; also called T335_09D Ho Ab
Turning to B17, in experiment [3], the Ho/Con_3a was 114 % of GpH7-B3/GpL16-k0 (=100).

B18: GpH7-B3 variant T335_08L/GpL16-k0 (homodimerized antibody, Ho Ab) (antibody, human IgG1, kappa)
heavy: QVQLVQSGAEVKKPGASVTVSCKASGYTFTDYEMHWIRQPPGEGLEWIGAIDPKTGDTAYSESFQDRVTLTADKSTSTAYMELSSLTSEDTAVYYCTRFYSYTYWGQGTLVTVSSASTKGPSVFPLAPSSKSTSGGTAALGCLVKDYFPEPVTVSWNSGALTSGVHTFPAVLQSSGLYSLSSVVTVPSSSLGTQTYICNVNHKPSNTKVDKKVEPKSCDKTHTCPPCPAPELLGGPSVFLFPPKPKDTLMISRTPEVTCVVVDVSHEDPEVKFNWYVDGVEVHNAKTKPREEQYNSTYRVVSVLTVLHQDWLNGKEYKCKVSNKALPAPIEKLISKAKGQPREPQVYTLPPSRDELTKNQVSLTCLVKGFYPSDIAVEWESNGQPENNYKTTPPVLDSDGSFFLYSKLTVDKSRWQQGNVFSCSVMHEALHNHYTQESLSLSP
light: B1 light
notes: Mutation in both H chains; also called T335_08L Ho Ab
In the case of B18, the Ho/Con_3a in experiment [3] was 103 % of GpH7-B3/GpL16-k0 (=100).

B19: GpH7-B3 variant S239_10E/GpL16-k0 (homodimerized antibody, Ho Ab) (antibody, human IgG1, kappa)
heavy: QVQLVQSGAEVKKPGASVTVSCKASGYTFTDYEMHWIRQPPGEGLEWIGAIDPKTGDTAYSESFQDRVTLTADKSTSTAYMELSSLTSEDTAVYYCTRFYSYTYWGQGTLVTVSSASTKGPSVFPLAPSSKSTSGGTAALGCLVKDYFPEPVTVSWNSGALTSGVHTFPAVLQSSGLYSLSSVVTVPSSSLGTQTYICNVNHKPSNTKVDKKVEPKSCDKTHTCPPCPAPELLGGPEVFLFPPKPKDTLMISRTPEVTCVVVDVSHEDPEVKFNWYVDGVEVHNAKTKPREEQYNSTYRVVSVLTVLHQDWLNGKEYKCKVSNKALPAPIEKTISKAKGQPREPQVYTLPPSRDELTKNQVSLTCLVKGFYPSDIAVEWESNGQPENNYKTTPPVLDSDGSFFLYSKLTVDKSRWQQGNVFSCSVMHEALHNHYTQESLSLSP
light: B1 light
notes: Mutation in both H chains; also called S239_10E Ho Ab
With B19, the Ho/Con_3a in experiment [3] is 252 % of GpH7-B3/GpL16-k0 (=100).

The record behind these values is patent US20180155451A1 (published 2018).
